Results from paper PMC3460914, “The Polyoma Virus Large T Binding Protein p150 Is a Transcriptional Repressor of c-MYC”.

T1: GST-p150 (human, UniProt F5H433 1-1005)
T1 sequence: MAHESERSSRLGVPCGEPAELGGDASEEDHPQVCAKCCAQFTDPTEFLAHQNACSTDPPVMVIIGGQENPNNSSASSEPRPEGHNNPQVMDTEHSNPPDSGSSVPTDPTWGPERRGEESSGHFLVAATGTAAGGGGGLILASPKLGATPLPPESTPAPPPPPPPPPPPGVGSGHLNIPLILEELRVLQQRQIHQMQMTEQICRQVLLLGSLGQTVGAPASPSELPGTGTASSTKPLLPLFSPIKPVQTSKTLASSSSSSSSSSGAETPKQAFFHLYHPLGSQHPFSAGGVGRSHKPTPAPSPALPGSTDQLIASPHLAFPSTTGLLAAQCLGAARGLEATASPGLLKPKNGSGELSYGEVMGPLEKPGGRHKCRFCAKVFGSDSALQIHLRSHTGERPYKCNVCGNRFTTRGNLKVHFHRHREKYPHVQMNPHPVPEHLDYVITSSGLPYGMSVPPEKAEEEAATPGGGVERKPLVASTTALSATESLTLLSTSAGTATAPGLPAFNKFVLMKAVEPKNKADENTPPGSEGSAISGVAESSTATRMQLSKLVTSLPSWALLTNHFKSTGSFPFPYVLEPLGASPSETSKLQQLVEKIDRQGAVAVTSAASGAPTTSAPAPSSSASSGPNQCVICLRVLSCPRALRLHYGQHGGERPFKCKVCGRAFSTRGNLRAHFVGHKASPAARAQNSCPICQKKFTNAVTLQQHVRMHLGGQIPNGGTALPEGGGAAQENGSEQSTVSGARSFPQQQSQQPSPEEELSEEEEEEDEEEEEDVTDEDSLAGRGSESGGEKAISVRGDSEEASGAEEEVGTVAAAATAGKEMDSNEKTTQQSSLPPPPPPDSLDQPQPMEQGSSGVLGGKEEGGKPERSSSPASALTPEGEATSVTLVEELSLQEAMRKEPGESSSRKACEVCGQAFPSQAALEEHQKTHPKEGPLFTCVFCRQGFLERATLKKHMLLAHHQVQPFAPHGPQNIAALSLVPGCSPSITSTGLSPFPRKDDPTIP


Legend:
GST-p150 [1] = biological target: T1, GST-p150; test: EMSA; 100 ng protein, 200 ng poly(dA-dT); 10 mM HEPES pH 7.5, 25 nM KCl (so in the source), 2.5 mM MgCl (so in the source), 5 µl ZnCl, 3% glycerol, 2 µg BSA, 200 ng poly(dA-dT); temperature not stated; details: protein: recombinant; tags: GST; label: 32P (probe); blunt
GST-p150 [2] = biological target: T1, GST-p150; test: competition; 50x unlabeled Oct1 vs labeled NHE III1; 10 mM HEPES pH 7.5, 25 nM KCl (so in the source), 2.5 mM MgCl (so in the source), 5 µl ZnCl, 3% glycerol, 2 µg BSA, 200 ng poly(dA-dT); temperature not stated; details: protein: recombinant; tags: GST; blunt

| Binder | binding result (GST-p150 [1]) | binding result (GST-p150 [2]) |
| --- | --- | --- |
| p150 consensus sequence (CS) (dsDNA) DNA 1: GGATCACTGGGTGGGAATCACGCT DNA 2: AGCGTGATTCCCACCCAGTGATCC | binds | – |
| Oct1 binding site (dsDNA) DNA 1: TGTCGAATGCAAATCACTAGAA DNA 2: TTCTAGTGATTTGCATTCGACA | – | no binding |
| NHE III1 of c-MYC promoter (dsDNA) DNA 1: TGGGGAGGGTGGGGAGGGTGGGGAAGG DNA 2: CCTTCCCCACCCTCCCCACCCTCCCCA | binds | – |
